Measured values reported in PMC4036328.

Assays:
[1] = molecular target: MjNhaP1 D161A mutant (NhaP1 Na+/H+ antiporter from Methanocaldococcus jannaschii) (Methanocaldococcus jannaschii) (UniProt Q60362); test: Western blotting; dimers observed by Western blotting; data not shown; no conditions told
[2] = molecular target: MjNhaP1 N160A mutant (NhaP1 Na+/H+ antiporter from Methanocaldococcus jannaschii) (Methanocaldococcus jannaschii) (UniProt Q60362); test: as above

Row | stoichiometry N [1] | stoichiometry N [2] | Substance
1 | 2 | – | MjNhaP1 D161A mutant (NhaP1 Na+/H+ antiporter from Methanocaldococcus jannaschii) (from UniProt Q60362 1-426) (natural protein)
2 | – | 2 | MjNhaP1 N160A mutant (NhaP1 Na+/H+ antiporter from Methanocaldococcus jannaschii) (from UniProt Q60362 1-426) (natural protein)
